Legend:
[1] = molecular target: T1, H1-mini2-cluster1+5+6-GCN4 without leader sequence and with FLAG-thrombin-foldon-HIS (SEQ ID NO: 6); assay: ELISA/HTRF ratio, reference itself; conditions: remark: other sources report otherwise
[2] = molecular target: T1, H1-mini2-cluster1+5+6-GCN4 without …; assay: ELISA signal over HTRF expression signal; average (AV); conditions: remark: other sources report otherwise

B1: CR6261 (antibody, V domains shown)
VH: EVQLVESGAEVKKPGSSVKVSCKASGGPFRSYAISWVRQAPGQGPEWMGGIIPIFGTTKYAPKFQGRVTITADDFAGTVYMELSSLRSEDTAMYYCAKHMGYQVRETMDVWGKGTTVTVSS
VL: QSVLTQPPSVSAAPGQKVTISCSGSSSNIGNDYVSWYQQLPGTAPKLLIYDNNKRPSGIPDRFSGSKSGTSATLGITGLQTGDEANYYCATWDRRPTAYVVFGGGTKLTVLG
Work on B1 yielded a fold increase of ratio over parental H1 mini-HA [1] of 1 fold and a ratio binding/HTRF signal [2] of 5.94.

— US20160136262A1
